Assay results reported in the supplement of paper PMC12455559.

Test: purified protein yield per well (BCA); higher = higher soluble expression
Outline: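 Expression was done in E. coli C41(DE3), using 2 mL autoinduction cultures with 100 µg/mL kanamycin incubated at 37 °C for 2 h and at 18 °C for 40 h. Protein was purified on Ni-charged magnetic beads and released by SUMO protease cleavage. Yield of purified protein per well was measured with the Pierce Rapid Gold BCA kit; values below 25 ug (0.1 mg/mL) are below detection.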

Sequence | purified protein yield per well [µg]
QTNPYARGPNPTDSLLEASRGPFSISSFTVSRPSGYGAGTVYYPTNAGGTVGAIAIVPGYTARQSSINWWGPRLASHGFVVITIDTNSTLDQPSSRSRQQMAALSQVVSLSRTSTSPIYNKVDASRLGVMGWSMGGGGSLISARDNPSIKAAAPQAPWNTSSNFSSMTVPTLIFACENDSIASTSSHASPMYNSMRLNPRQYFEINNGSHSCANSGNSNQALIGKRGVAWMKRFMDNDTRYTSFACSNPNTFSVSEFRTANCS [ESM180] | < 25
VQNGPTPTLADLKKDGPYAVTSQTVAGNGFGGGTVYSPNTAGKYALVAVCPGFVSAQSSMTEMGRRLATHGFVVVTIATNTPFDFPSSRATQLLAALKTVAALNTGAVAGKVDTSRQVVSGWSMGGGGTLEAAGITPGLVAGVAFAPWHTSTAKMTSLTVPVAIIGGTSDTIAPVSGHSQKFYDAIPKTTKKMLGVITGADHFFPTKASEPTSYSNISWVKRFADGDTRYSPFLTGQDAAWASFVSTGPF [ESM118] | < 25
FGGGTIYYPTSTADGTFGAVVISPGFTAYESSIAWLGPRLASQGFVVFTIDTNTTLDQPDSRGRQLLAALDYLTQRSSVRTRVDATRLGVMGHSMGGGGSLEAAKSRPSLKAAIPLTGWNTDKTWPELRTPTLVVGADGDSIAPVATHSEPFYESLPGSLDKAYLELRGASHFTP [TEP045] | < 25
MFSASTFAYNPAPPPPSPTPTPTPGPLPGQPNDGFQRGPNPSVSLLEAERGPFSVRNARVSSSVRGFGGGTIYYPTGTTGTMGAIVVIPGYVSPESSIAWWGPKMASHGFVVMTIATNRTTDQPSSRATQINAALDYLISQNSTSGSPVRNMIDTDRLGVMGWSMGGGGTLRVASQNRLKAAIPLAPYDTISFRNVDAPTLIFGCESDTVAPVRNHASPFYNQIPAGTDKAFVELNGGSHTCANGGNQYNDVLSRLGVSWMKRHLDNDTRYSQFLCGPNHTSDRDISEYRGNCPY [DP070] | < 25
ATTTLLAESFDNGFGVFSAQGYASTDNGVAVLRGGSADGTITSGAVPAAGQTNLTLSWTQTTSRLDAGESLVVEWSTGSSWSSLSSERSSGVLSVGLPTAAASNALQLRFRVDASSYYERVDVDDVVLTAGDGGGSGNPYAKGPDPTWNSIEATTGPFEVDDYDISSFAADGFGGADVYYPSDAGSATFGGIAISPGYTASRSTVTWLGPRIASQGFVVIVIDTNSRYDQPASRGDQLLAALDQLVNDSDVSHLVDPNRLAVMGHSMGGGGSLEAADDRPSLRAIVPLQGWNSDKTWSQVQVPALLIGGENDSVAPDSSHSQRFYDSLGGEKVYLQLNNASHFASNSPNTTIASYSIAWLKRWVDEDTRYSQFVCGPDAGQGSAISDYRTTCPV [DP065] | < 25
ATTAGTFGGVAISPGYTASESTIAWLGPRIASQGFVVITFNTNSRYDQPASRGDQLLAALDYLTGSSAVRARVDASRLAVMGHSMGGGGALEAAKDRPSLQAAIPLTGWNTDKTWPEVRTPTLVIGAENDSVAPVGSHSIPFYNSLTSAPERAYLELNNASHFAPNSPNTDIASSSIAWLKRYVDDDTRYTQFLCPGPSVSAFGSVSDYRATCPM [TEP154] | < 25
AAPPVPQVAASPYERGPAPSEESVTAAEGPFEFETIDVPAGSGDGFNQGTIYAPTDRSQGTFGAIAVSPGFVSPEALVSWYGPRLASQGFVVMTIETNTVLDLPAMRGDQLLAALDYLTGAASPVADRVDPDRLAVMGHSMGGGGTLEAASRRTDLRAAVPLAPWNLTSDWSAVRTPTMILGAQNDFIAANGLHSEPFYEGLTSAPEKAYAELENTGHMSFNTPNDTIAKYTIAWMKRYVDDDARYERFLCPAPSDDPALIEYRDTCPGG [TEP149] | < 25
QIGPDPTSASLNATAGSFAVSTSNVTLARGFGGGTIYYPTTAGRYGVVAISPGFTATQSSIAWLGRRLATHGLVVITMNTNSTLDQPASRATQLMAALNYVVNSASSTVRARVDSTRLAVAGHSMGGGGALIAAEDNPTLKAALPLTPWNLSTSFTQVRVPTLIVGADGDTVASVAAHARPFYASLPASTFKAYAELNGATHFTPNSTNTPIGRYGVTWMKRFVDADTRYSPFLCGAAHTAYATALVFDRYNQNCPY [ESM068] | < 25
SNPAPEPSPTPSPSPSQPSNPFQRGPNPTVASVESAGPFAVRTSRVSSAVSGFGGGTIYYPSGTTGTMAAIVVIPGYVSSQSSIEWWGPRLASNGFVVMTIDTNATTDQPPARARQINAALDYLIAQNRASGSPVNGMIDTSRLGVVGWSMGGGGTLRVASEGRIKAAIPLAPWDTTTFRNVKAPTLIFACESDTIAPVRNHASPFYNQVPTSIPKAFVQLNRGNHYCANGGNAFNADLSRLGVSWMKRFLDNDRRFSQFLCGPN [ESM016] | < 25
QIGPAPTSASLNATAGPLAVSTSTVTVATGFGGGTIYYPSTAGQYGVIAISPGFTATQSSVAWLGRRLATHGFVVITIDTNTTLDQPASRATQLIAALNYVVNSASSTVRSRVDPNRRAVAGHSMGGGGALIAAENNPSLKASLPLTPWNLSSSFTQVRVPTLIVGSDGDAVAPVAVHARPFYASLPGTTYKAYAELNLATHFTPNSTNTPIGRYGVTWMKRFVDADTRYSSFLCGADHQAYATALVFDRYSQNCPY [ESM116] | < 25
QAIGPDPTAASLAADGPFAVSTQTASRATGFAGGTIYVPNTAGRYALVAFCPGFTNSQSAVAALGRRLATHGFVVVTMNTNSIFDFPASRATQLIAALNTVAAISTGPVVGKVDSARRMVAGYSMGGGGALIAARGNPSLRGAVALAPWSDSDKNFSTTTVPTAIVAGSADTTASPTDHATVFYNSMPTTTKKLLAIISGATHSFPTTSTPNQPASGYQIAWSKRFADQDVRYGPFLVTDSRLSSFASTGPF [ESM142] | < 25
QSNPYARGPDPTTAALEASRGPFAFSSFSVTRPSGYGAGTVYYPTNAGGTVGAIAIVPGFFARQSSINWWGPRLASHGFVVITIDTNSTFDQPASRASQQMAALRQVATLAGTSSSPIYRKVDTARLGVMGWSMGGGGTLLAARDNPSLKAAAPQAPWNSSTTNFSSMTVPTLIIACESDSTAPTRSHAEPFYTSMSRNSKQYLEINNGSHSCANGGSNTGLLGKKGVAWMKRFMDEDRRYTSFACSNPNSSAVSDFRTANCS [ESM149] | < 25
VQIGPAPTSAALNKDGSFSVSSSSVSMLSARGFGSGTIYYPSTSGQYGVIAVCPGFTGTSSSISWFARRLASHGFVTIAMNTTTTLDQPASRATQLAAALKYVLNSSSSTVRSRIRAADRGVAGHSMGGGGTLIASQSDSTLRVGIPMTPWNLSTNFSSVKVPQMIFGADGDTIAPYASHARPFYNSLSKAPKAYGLLKSATHFTPNATDQRIGRYGVAFAKRFVDGDTRYSPFLCGSEHNSYATSSKFATYLSNCPY [ESM148] | < 25
ADNPHERGPDPTESSIEALRGSYAVSERSVSRWVSGFGGGTIYYPTTTSDGDFGAVVISPGYTGTESTVAWLGPRLASQGFVVLTMATNSIYDQPDSRARQLQAALDYLTASSPVADRIDADRLALMGHSMGGGGTLRAVDDNPDIKAAIPMTPWHPQKDWSSVSTPTLIFAAENDSVARHETHAEPFYESFEQDLPKAYLELDGASHFAPNTSNTTIAKYSISWLKRFVDDDTRYTPFLCPGPSTGWLSDVEKYESSCPF [DP076] | < 25
VENGPAPTVSSVRADAGSYSVSKTSYADNVTPGFGAATVYAPSNTTGQKFGVVSFAPGWTENQSAVDWIARRTASFGFVTIVFDVNNTFFDFPAARAPQLIAALNFVTGTSNQRNLADASREAVVGHSMGGGATLDAARANPSLKATVGLAPWNPGISYSDVTVPSLEIGAQNDFIAGVSNNARYFYNSLPGSTPKAYTEMKSFGHLQTNYPSAQVGAATVSWLKRYVDGDTRYAPFICGAHTGVQNSELSAYASNC [ESM168] | < 25
LQMQSLINIGPLQISEINESMGLRNGTDYNGATIYYPINQNNLSSIVLVPGFMNTELTIQNWGPFFASHGIITMTIGTNSLTDTHVQRRDALFDAIISLKQENQRIASPLFGKLDTSSIAVGGFSKGGGGAQLLAKFDPSLKAVVALYPWLENVTASDLEHTVPLIIISGQLDAIAPPFLHADIQYNLTPMTTKKLKYEVAFASHDAISGPYAGNGEVGARVLSWLNTFLVTDSCYCPLLLEQPITSSSYTTNIVCSNLFTNIYESNKSYSKEIIEIRDLYGRKVKFSNSRILIYIYNDGSYEKKITL [TEP016] | < 25
